One molecule from paper PMC11404848 (2024) can be followed below.

The target in this experiment is Sensor^BtsK (Stenotrophomonas maltophilia CGMCC …, labelled with the Monolith NT.115 Protein Labeling Kit Red NHS (a dye that reacts with amines)). The experiment in a line: MST.

B1: BtsD^Δ(SP-GGDEF) (domain or fragment)
chain: APPLRDYAIDVWTSRNGLPHNSLRDIAQTPEGHLWFATWEGLVRYNGLDFTVFDRSTRPGLRDNGIGALLVDRQGGLWISDSRGNVSHRGNDGQWRVWEHQADTPQVLIQSMQMDSQGRLWLLYEGKGIGYLTPDKGIVYQAPAADLPMAMSFTKLVVDAQDRVWVGTLDGLVLRDNDGVLKRAPAAWGLGAGTGLSWPYRAPDGALWIVAGERLYRVEDDQLVLVHRLPGQLHMTSMLQDRHGDLWLGTENQGLLRISAHGLERLPAGLNLPGGRVVSLREDAEGSIWVGANGGLYRLRETLFSSYTERDGLSGDYVRTVLEDRDRQLWVGSASGLDLQTPDGRFRAVPLHNRGGKAPSVLSLAQGPDGDLWVGTFGDGVYRLDRDGSLRHNYAAADGMPGGNIRAISVDPQGRVWAGTQKGVVRIDGDRVQVSTAPGMPGGLITALEHDHQGNLWIGTIEGIRVLRGDHVQSIDLAPMGGGRSVFGFHQLGEAMWISSDRGLYRWRDGKLARVGLEQGMPVDAVFQLVPDRLGNVWISSNRGVLRTDMATLNAVADGRAPRVVVERYNEIDGMANAQANGSSGPSAILRQDGTFWVVTAGGLSTVDPQRLQRFRERPSPPAAIESVQVDGAPVHWEGPDRNYIPGGRRLAVSYVGLSYLMSDRIRYRTRLEGLDAGWVERGPQRSVEFVGLPPGDYTLHVSAAHPGGAWGQQEAVWSFTVEPFWWQRRSVQLLGGLLLLAGLVVLYRLLLQQLKASNLRLARRVDEATFDLQAKTVHLQALNQEKTELAER
As usually defined, the Kd is a measure of binding affinity in units of concentration. Consider B1, for which the Kd came out at 3.17 µM.
